Experiment [1] has as its target transferrin receptor 1 (TFRC) (human) (UniProt P02786). As to the kind of experiment: IP with IgG control, lysate of 231 cells with V5-NMES1 OE pre-incubated with NM-1; western blot for TFRC. (In general: A western blot detects proteins with antibodies after separation by electrophoresis.)
Experiment [2] has as its target V5-hNMES1 (human) (UniProt Q9C002). As to the kind of experiment: IP with IgG control, lysate of 231 cells with V5-NMES1 OE pre-incubated with isotype ctrl; western blot for NMES1; a band is visible in this control lane.
Experiment [3] addresses transferrin receptor 1 (TFRC) (human) (UniProt P02786). As to the kind of experiment: IP with IgG control, lysate of 231 cells with V5-NMES1 OE pre-incubated with isotype ctrl; western blot for TFRC.
In experiment [4] the target is V5-hNMES1 (human) (UniProt Q9C002). As to the kind of experiment: IP with IgG control, lysate of 231 cells with V5-NMES1 OE pre-incubated with NM-1; western blot for NMES1; hardly any band.
Chain of V5-hNMES1 (human) (Q9C002 whole entry): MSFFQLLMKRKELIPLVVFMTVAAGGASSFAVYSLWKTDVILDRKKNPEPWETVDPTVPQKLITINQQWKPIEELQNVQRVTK

Chain of transferrin receptor 1 (TFRC) (human) (P02786 whole entry): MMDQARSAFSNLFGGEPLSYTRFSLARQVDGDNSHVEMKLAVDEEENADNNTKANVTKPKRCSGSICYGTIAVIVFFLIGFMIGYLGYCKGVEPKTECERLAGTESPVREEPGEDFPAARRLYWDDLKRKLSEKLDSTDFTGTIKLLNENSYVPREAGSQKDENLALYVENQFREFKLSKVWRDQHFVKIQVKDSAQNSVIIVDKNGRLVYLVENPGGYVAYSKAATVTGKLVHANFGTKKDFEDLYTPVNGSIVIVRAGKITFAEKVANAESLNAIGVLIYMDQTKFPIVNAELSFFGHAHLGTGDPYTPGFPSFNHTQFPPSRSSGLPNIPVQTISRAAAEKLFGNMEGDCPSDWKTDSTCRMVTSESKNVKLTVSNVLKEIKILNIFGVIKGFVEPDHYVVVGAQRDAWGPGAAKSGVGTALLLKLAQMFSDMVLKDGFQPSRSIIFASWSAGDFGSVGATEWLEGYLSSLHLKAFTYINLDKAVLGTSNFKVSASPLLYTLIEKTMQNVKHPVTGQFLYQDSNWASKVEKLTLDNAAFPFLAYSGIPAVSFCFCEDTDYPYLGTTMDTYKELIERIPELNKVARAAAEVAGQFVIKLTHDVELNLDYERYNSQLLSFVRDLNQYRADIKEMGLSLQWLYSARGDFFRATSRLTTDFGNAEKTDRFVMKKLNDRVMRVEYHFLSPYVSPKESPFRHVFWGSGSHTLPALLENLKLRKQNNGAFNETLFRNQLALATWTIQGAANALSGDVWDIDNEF

For the substance isotype IgG control (antibody), the number under the TFRC band (band intensity, not named on the sheet) in experiment [1] turned out to be 27.4; in experiment [3] it was 24. Further, the values for the number under the NMES1 band (band intensity, not named on the sheet) in experiment [2] and in experiment [4] were 38.5 and 15.8, respectively.

Values taken from US20210371508A1.
